Assay results reported in IntAct's records for PubMed 29892012.

B1: Abl interactor 2 (Homo sapiens), Q9NYB9 (parent)
chain: MAELQMLLEEEIPGGRRALFDSYTNLERVADYCENNYIQSADKQRALEETKAYTTQSLASVAYLINTLANNVLQMLDIQASQLRRMESSINHISQTVDIHKEKVARREIGILTTNKNTSRTHKIIAPANLERPVRYIRKPIDYTILDDIGHGVKWLLRFKVSTQNMKMGGLPRTTPPTQKPPSPPMSGKGTLGRHSPYRTLEPVRPPVVPNDYVPSPTRNMAPSQQSPVRTASVNQRNRTYSSSGSSGGSHPSSRSSSRENSGSGSVGVPIAVPTPSPPSVFPAPAGSAGTPPLPATSASAPAPLVPATVPSSTAPNAAAGGAPNLADGFTSPTPPVVSSTPPTGHPVQFYSMNRPASRHTPPTIGGSLPYRRPPSITSQTSLQNQMNGGPFYSQNPVSDTPPPPPPVEEPVFDESPPPPPPPEDYEEEEAAVVEYSDPYAEEDPPWAPRSYLEKVVAIYDYTKDKEDELSFQEGAIIYVIKKNDDGWYEGVMNGVTGLFPGNYVESIMHYSE

Variants of: B1
Conditions: with ift20_human IFT20, Q8IY31
ift20_human IFT20, Q8IY31, sequence (Q8IY31 whole entry): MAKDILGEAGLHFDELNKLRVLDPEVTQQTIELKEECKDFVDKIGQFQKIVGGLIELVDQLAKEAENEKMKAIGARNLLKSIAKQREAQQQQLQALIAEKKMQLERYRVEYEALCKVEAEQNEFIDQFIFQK

| effect of a mutation on the interaction | Variant |
| --- | --- |
| with no effect | E202K |

Variants of: B1
Conditions: with wipf1_human WIPF1, O43516
wipf1_human WIPF1, O43516, sequence (O43516 whole entry): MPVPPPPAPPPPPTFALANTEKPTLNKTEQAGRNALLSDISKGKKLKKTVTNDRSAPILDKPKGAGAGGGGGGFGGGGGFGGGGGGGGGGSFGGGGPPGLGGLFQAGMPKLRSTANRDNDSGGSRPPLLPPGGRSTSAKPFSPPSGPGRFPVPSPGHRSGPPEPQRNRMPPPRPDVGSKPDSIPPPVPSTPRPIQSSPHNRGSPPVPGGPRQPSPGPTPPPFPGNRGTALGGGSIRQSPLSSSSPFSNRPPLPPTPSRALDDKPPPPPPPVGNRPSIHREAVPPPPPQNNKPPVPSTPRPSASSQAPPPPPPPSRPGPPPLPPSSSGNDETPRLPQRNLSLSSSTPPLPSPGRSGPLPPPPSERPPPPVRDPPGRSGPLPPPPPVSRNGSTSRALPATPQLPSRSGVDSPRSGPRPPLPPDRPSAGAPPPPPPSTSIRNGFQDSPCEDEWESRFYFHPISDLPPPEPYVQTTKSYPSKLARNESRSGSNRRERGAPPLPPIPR

| effect of a mutation on the interaction | Variant |
| --- | --- |
| with no effect | E202K |

Variants of: B1
Conditions: with k1h1_human KRT31, Q15323

| effect of a mutation on the interaction | Variant |
| --- | --- |
| with no effect | E202K |

Variants of: B1
Conditions: with aapk2_human PRKAA2, P54646
aapk2_human PRKAA2, P54646, sequence (P54646 whole entry, looked up): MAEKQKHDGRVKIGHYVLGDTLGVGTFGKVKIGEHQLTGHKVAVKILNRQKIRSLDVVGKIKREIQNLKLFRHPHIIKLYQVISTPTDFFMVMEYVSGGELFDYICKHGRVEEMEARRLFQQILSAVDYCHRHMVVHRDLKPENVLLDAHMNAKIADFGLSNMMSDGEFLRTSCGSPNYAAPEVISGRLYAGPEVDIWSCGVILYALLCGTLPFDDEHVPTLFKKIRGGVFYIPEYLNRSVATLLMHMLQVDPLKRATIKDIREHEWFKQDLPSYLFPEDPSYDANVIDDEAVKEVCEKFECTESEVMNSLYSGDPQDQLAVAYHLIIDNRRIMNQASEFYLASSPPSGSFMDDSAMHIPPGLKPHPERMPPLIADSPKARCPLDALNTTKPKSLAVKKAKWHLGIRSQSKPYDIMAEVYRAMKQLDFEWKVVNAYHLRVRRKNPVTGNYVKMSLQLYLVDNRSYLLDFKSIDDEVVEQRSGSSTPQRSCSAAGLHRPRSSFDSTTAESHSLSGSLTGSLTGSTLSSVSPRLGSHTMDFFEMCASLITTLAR

| effect of a mutation on the interaction | Variant |
| --- | --- |
| with no effect | E202K |

Variants of: B1
Conditions: with skt_human KIAA1217, Q5T5P2

| effect of a mutation on the interaction | Variant |
| --- | --- |
| with no effect | E202K |

Variants of: B1
Conditions: with aapk1_human PRKAA1, Q13131
aapk1_human PRKAA1, Q13131, sequence (Q13131 whole entry, looked up): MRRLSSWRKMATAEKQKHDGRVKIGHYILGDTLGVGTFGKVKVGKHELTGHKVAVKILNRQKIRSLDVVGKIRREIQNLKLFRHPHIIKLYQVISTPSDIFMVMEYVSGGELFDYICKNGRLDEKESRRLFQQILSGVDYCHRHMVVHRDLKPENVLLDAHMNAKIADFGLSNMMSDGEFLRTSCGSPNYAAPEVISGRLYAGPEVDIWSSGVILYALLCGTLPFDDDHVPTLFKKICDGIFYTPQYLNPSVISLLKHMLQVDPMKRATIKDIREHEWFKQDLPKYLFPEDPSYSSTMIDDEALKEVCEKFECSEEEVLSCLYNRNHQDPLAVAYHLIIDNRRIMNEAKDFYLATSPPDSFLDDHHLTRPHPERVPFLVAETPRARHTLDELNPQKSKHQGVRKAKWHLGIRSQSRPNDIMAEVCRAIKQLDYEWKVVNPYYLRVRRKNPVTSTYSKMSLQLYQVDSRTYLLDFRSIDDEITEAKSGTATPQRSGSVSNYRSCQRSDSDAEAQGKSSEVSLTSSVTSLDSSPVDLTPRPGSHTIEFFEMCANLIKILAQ

| effect of a mutation on the interaction | Variant |
| --- | --- |
| with no effect | E202K |

Variants of: B1
Conditions: with eif3h_human EIF3H

| effect of a mutation on the interaction | Variant |
| --- | --- |
| with no effect | E202K |

Variants of: B1
Conditions: with hnrpk_human HNRNPK

| effect of a mutation on the interaction | Variant |
| --- | --- |
| with no effect | E202K |

Variants of: B1
Conditions: with tri32_human TRIM32, Q13049
tri32_human TRIM32, Q13049, sequence (Q13049 whole entry): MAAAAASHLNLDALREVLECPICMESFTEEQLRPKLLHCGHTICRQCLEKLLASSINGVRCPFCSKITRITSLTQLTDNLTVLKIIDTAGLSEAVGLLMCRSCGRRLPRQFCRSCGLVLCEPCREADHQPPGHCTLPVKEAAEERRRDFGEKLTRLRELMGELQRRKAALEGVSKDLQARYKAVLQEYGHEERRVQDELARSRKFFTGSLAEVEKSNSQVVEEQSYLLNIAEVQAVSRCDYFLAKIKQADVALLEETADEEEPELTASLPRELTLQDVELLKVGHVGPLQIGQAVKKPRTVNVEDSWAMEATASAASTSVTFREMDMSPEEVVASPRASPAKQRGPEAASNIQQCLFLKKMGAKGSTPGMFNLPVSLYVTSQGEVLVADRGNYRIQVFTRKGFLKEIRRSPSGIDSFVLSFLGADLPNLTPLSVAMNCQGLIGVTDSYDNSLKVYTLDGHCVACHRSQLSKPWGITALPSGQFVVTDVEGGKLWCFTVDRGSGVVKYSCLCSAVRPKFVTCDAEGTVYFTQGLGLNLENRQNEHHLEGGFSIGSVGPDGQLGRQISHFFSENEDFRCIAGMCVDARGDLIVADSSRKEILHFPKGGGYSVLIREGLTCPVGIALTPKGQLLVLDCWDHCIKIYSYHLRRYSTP

| effect of a mutation on the interaction | Variant |
| --- | --- |
| with no effect | E202K |

Variants of: B1
Conditions: with vasp_human VASP

| effect of a mutation on the interaction | Variant |
| --- | --- |
| with no effect | E202K |

Variants of: B1
Conditions: with ppif_human PPIF

| effect of a mutation on the interaction | Variant |
| --- | --- |
| with no effect | E202K |

Variants of: B1
Conditions: with KRT15, P19012

| effect of a mutation on the interaction | Variant |
| --- | --- |
| with no effect | E202K |

Variants of: B1
Conditions: with nup62_human NUP62, P37198

| effect of a mutation on the interaction | Variant |
| --- | --- |
| with no effect | E202K |

Variants of: B1
Conditions: with KRT19, P08727

| effect of a mutation on the interaction | Variant |
| --- | --- |
| with no effect | E202K |

Variants of: B1
Conditions: with rhg32_human ARHGAP32, A7KAX9

| effect of a mutation on the interaction | Variant |
| --- | --- |
| with no effect | E202K |

Variants of: B1
Conditions: with nck2_human NCK2, O43639
nck2_human NCK2, O43639, sequence (O43639 whole entry): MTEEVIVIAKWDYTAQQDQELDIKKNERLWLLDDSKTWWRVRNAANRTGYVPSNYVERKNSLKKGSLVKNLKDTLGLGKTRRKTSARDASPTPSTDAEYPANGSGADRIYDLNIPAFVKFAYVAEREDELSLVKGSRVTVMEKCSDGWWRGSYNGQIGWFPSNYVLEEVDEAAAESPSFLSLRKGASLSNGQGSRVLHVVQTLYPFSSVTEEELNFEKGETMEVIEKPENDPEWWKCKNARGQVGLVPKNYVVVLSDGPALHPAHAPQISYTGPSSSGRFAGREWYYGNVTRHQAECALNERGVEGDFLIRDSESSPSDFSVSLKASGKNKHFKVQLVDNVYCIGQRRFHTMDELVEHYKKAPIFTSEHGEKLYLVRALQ

| effect of a mutation on the interaction | Variant |
| --- | --- |
| with no effect | E202K |

Variants of: B1
Conditions: with hgs_human HGS

| effect of a mutation on the interaction | Variant |
| --- | --- |
| with no effect | E202K |

Variants of: B1
Conditions: with pcm1_human PCM1, Q15154
pcm1_human PCM1, Q15154, sequence (Q15154 whole entry): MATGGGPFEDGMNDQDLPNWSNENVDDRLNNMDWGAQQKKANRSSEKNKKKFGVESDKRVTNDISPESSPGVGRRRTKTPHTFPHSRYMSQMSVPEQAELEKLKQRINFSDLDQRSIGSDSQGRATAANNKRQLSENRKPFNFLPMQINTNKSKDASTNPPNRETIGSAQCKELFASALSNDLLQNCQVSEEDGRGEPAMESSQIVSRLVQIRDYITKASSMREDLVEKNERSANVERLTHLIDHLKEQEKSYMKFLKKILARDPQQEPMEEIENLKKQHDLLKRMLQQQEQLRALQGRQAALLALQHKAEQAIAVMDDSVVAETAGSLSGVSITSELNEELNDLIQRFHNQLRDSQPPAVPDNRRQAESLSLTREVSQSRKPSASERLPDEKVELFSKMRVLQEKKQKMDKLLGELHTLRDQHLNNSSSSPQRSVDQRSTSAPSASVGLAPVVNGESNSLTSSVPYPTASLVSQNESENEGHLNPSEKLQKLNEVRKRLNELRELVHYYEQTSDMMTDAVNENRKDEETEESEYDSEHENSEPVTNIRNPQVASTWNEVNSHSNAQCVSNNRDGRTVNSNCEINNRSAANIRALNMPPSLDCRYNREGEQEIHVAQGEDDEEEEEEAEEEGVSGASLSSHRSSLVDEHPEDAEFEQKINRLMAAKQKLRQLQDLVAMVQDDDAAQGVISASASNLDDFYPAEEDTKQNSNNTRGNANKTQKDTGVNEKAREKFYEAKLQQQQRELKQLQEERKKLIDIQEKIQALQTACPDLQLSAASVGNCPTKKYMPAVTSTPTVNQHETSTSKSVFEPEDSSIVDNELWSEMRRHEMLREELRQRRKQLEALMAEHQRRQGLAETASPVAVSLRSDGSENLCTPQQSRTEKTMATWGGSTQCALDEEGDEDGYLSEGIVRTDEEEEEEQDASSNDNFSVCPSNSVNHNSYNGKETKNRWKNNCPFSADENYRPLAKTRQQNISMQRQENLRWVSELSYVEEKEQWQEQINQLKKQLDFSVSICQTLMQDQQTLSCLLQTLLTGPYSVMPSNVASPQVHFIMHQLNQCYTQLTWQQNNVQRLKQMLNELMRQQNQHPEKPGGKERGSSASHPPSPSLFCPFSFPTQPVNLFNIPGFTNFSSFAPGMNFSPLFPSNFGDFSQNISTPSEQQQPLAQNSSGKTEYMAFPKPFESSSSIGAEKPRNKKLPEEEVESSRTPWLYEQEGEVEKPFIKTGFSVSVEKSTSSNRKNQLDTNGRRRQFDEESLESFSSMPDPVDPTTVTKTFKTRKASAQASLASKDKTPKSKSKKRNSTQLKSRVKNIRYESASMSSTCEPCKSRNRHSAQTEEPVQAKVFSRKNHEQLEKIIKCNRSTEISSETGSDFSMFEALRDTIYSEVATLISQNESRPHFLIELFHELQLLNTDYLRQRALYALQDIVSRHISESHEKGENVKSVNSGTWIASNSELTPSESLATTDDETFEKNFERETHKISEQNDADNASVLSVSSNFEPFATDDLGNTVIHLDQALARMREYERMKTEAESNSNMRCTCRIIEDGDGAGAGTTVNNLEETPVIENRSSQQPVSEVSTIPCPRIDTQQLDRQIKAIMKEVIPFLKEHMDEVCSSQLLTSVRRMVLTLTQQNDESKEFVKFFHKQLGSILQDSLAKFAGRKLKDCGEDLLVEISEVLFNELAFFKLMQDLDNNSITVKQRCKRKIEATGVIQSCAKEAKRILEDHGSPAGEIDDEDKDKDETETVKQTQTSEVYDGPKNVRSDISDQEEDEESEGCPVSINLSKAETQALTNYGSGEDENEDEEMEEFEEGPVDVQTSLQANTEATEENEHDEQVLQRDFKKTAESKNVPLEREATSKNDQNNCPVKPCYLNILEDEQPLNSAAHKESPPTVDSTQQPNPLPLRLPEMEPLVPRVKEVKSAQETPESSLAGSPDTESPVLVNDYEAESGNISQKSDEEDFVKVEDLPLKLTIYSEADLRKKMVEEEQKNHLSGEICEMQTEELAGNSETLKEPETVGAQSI

| effect of a mutation on the interaction | Variant |
| --- | --- |
| with no effect | E202K |

Variants of: B1
Conditions: with stam2_human STAM2, O75886

| effect of a mutation on the interaction | Variant |
| --- | --- |
| with no effect | E202K |

Variants of: B1
Conditions: with vinc_human VCL

| effect of a mutation on the interaction | Variant |
| --- | --- |
| disrupting interaction strength | E202K |

Variants of: B1
Conditions: with crx_human CRX

| effect of a mutation on the interaction | Variant |
| --- | --- |
| with no effect | E202K |

Variants of: B1
Conditions: with mr1l1_human MRFAP1L1, Q96HT8
mr1l1_human MRFAP1L1, Q96HT8, sequence (Q96HT8 whole entry): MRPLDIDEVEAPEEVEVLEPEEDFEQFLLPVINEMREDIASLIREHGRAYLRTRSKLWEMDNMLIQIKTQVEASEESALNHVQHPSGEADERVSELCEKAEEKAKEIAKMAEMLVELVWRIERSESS

| effect of a mutation on the interaction | Variant |
| --- | --- |
| disrupting interaction strength | E202K |

Variants of: B1
Conditions: with sdcb1_human SDCBP

| effect of a mutation on the interaction | Variant |
| --- | --- |
| disrupting interaction strength | E202K |

Variants of: B1
Conditions: with efs_human EFS

| effect of a mutation on the interaction | Variant |
| --- | --- |
| with no effect | E202K |
